Experimental data taken from PMC13364712, “Evolutionarily conserved short linear motifs drive actin filament binding” (Nature Cell Biology, 2026).

Biological target: actin filaments (actin from Gallus gallus skeletal muscle) (Gallus gallus (chicken), UniProt P68139 1-377)
Assay: co-sedimentation; 4 µM EGFP–SFM peptide with 0–200 µM actin filaments in F buffer, 1 h at room temperature, 100,000g for 30 min; pellet read by anti-EGFP western blot; one-site specific binding fit; apparent
Conditions: both partners purified

Kd: 6 µM
B1: EGFP-tagged ESPNL SFM peptide (peptide)
chain: IQEWGVSVRTLRGNFESASGPLC
modifications: Limits from translated primers P11/P12 (7 residues either side of SFM 652-660). Construct also has an initiator Met before the peptide and a C-terminal linker-EGFP-TEV-His, left out.
